Assay results as given in US20200238197A1.

Experiments:
[1] = molecular target: Polyclonal human IgG Gammanorm; assay: Binder coupled to Praesto Pure45 agarose beads. Mass of injected polyclonal hIgG (Gammanorm) at 10% breakthrough, 6 min residence time (Example 10).
human IgG1 = assay: ELISA, IgG1 antibody coated on plate, detection with Strep-Tactin-HRP

Substance | dynamic binding capacity [1] [mg/mL] | Kd (human IgG1) [nM]
R PROTEIN A | 37.4 | 
Staphylococcus aureus Protein A domain B |  | 3.1
